Laboratory results reported in patent US20110311556A1 (LFB BIOTECHNOLOGIES, published 2011).

How the values were obtained:
[1] = target: T1, Rhesus D antigen (RhD) on Rhesus D positive red blood cells group O R1R1 (human, UniProt Q02161 2-417); assay: cytometric determination of anti-D specific activity on red blood cells
T1 construct: whole, on cells
T1 sequence (looked up): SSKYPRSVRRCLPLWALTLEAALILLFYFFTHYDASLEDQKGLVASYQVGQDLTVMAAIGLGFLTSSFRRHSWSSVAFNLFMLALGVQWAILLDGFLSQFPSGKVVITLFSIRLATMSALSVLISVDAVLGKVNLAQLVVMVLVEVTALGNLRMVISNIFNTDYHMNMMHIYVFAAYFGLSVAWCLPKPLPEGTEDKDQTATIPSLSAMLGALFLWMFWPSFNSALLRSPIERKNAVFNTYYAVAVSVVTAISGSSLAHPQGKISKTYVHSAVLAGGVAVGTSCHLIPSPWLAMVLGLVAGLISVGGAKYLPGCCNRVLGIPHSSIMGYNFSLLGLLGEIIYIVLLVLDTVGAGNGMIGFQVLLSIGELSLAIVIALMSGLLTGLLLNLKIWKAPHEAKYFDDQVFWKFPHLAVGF

CD16 (FcγRIII receptor) = CD16 (FcγRIII receptor) (UniProt P08637 17-254, limits assumed); assay: cell-based or functional assay
Sequence of CD16 (FcγRIII receptor) (P08637 17-254 limits assumed): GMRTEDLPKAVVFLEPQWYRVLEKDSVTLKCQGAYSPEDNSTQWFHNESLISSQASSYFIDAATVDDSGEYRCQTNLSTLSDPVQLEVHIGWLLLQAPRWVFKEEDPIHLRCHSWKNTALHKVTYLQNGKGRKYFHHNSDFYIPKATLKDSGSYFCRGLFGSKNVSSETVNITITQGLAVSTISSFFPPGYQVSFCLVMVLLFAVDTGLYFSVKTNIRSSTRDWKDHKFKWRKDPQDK

B1: non-mutant (C68) anti-D antibody (sequence of the R297 antibody of clone T125 A2) (antibody, human IgG1, kappa)
heavy: not shown
light: AIRMTQSPSSFSASTGDRVTITCRASQDIRNYVAWYQQKSGKAPKFLIYAASTLQSGVPSRFSGSGSGTDFTLTINSLQSEDFATYYCQQYYNSPPTFGQGTRVEITRTVAAPSVFIFPPSDEQLKSGTASVVCLLNNFYPREAKVQWKVDNALQSGNSQESVTEQDSKDSTYSLSSTLTLSKADYEKHKVYACEVTHQGLSSPVTKSFNRGEC
notes: IgG1 tetramer; also called non-mutant (C68) antibody; T125 anti-D antibody
binding result [1]: binds
ADCC activity: EC50 (antibody concentration producing 50% of maximum activity) (CD16 (FcγRIII receptor)): 0.02 µg/mL

B2: R593 antibody (mutant (F68) anti-D antibody) (antibody, human IgG1, kappa)
heavy: not shown
light: AIRMTQSPSSFSASTGDRVTITCRASQDIRNYVAWYQQKSGKAPKFLIYAASTLQSGVPSRFSGSGSGTDFTLTINSLQSEDFATYYCQQYYNSPPTFGQGTRVEITRTVAAPSVFIFPPSDEQLKSGTASVVCLLNNFYPREAKVQWKVDNALQSGNSQESVTEQDSKDSTYSLSSTLTLSKADYEKHKVYACEVTHQGLSSPVTKSFNRGEC
notes: Tetrameric IgG1 with kappa light chain, two heavy and two light chains; Phenylalanine at heavy chain position 68 (67 by Kabat); Produced in the YB2/0 line; also called mutant (F68) antibody; mutant F68 antibody
binding result [1]: binds
ADCC activity: EC50 (antibody concentration producing 50% of maximum activity) (CD16 (FcγRIII receptor)): 0.021 µg/mL
